The values below come from patent US20220025010A1 (ANTAG THERAPEUTICS, published 2022).

Like-named read-outs stand apart in the source and are kept apart here. Where no end group is shown, it is not given here. The star is where a group is joined. C16 diacid = O=C(O)CCCCCCCCCCCCCCC(=O)*

What all share (assay): cell-based or functional assay
The target of assay [1] is T1, human GIP receptor (human, UniProt P48546 22-466).
T1 sequence (looked up): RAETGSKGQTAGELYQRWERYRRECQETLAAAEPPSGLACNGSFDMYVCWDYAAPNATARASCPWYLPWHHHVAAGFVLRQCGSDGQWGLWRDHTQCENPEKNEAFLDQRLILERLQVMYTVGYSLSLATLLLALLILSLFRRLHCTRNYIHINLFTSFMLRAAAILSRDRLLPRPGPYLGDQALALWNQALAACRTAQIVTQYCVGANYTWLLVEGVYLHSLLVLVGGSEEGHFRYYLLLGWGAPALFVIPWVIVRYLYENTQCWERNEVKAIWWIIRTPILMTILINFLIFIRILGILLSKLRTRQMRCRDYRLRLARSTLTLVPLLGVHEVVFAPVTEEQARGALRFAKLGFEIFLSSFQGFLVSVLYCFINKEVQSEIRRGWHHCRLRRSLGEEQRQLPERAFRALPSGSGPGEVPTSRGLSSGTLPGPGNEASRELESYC

In the next assay the target is GLP1 receptor (UniProt P43220 24-463, limits assumed).
The next assay has as its target glucagon receptor (UniProt P47871 26-477, limits assumed).
Assay [2] has as its target T1, human GIP receptor. This is another data set of the same source.

glucagon receptor, sequence (P47871 26-477 limits assumed): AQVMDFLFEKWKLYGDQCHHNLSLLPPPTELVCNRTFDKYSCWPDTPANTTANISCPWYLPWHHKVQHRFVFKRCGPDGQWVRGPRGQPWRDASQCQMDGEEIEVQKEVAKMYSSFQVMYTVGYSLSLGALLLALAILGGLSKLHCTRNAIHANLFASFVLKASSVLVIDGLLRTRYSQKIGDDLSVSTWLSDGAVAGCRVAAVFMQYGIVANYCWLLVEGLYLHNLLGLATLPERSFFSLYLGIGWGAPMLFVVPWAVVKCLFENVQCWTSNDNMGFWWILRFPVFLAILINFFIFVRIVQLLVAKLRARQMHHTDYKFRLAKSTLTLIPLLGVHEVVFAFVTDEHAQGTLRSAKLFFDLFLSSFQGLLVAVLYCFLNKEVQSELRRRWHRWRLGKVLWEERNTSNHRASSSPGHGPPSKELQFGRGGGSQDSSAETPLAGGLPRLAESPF

B1: AT257 (peptide)
peptide: GGTFISDYSIAMDRIK(C16 diacid)QQDFVNWLLAQR-OH
modifications: N-terminus assumed
SMILES: CC[C@H](C)[C@H](NC(=O)[C@H](CO)NC(=O)[C@H](Cc1ccc(O)cc1)NC(=O)[C@H](CC(=O)O)NC(=O)[C@H](CO)NC(=O)[C@@H](NC(=O)[C@H](Cc1ccccc1)NC(=O)[C@@H](NC(=O)CNC(=O)CN)[C@@H](C)O)[C@@H](C)CC)C(=O)N[C@@H](C)C(=O)N[C@@H](CCSC)C(=O)N[C@@H](CC(=O)O)C(=O)N[C@@H](CCCNC(=N)N)C(=O)N[C@H](C(=O)N[C@@H](CCCCNC(=O)CCCCCCCCCCCCCCC(=O)O)C(=O)N[C@@H](CCC(N)=O)C(=O)N[C@@H](CCC(N)=O)C(=O)N[C@@H](CC(=O)O)C(=O)N[C@@H](Cc1ccccc1)C(=O)N[C@H](C(=O)N[C@@H](CC(N)=O)C(=O)N[C@@H](Cc1c[nH]c2ccccc12)C(=O)N[C@@H](CC(C)C)C(=O)N[C@@H](CC(C)C)C(=O)N[C@@H](C)C(=O)N[C@@H](CCC(N)=O)C(=O)N[C@@H](CCCNC(=N)N)C(=O)O)C(C)C)[C@@H](C)CC
Turning to B1, in the assay with human GIP receptor [1], the “CisBio cAMP antagonism % inhib” value was 80%, the “CisBio cAMP antagonism IC50” value was 136 nM and the “cAMP antagonism IC50” value is 21 nM. In the assay with GLP1 receptor, the “cAMP antagonism % inhib” value was 55%, the “cAMP antagonism IC50” value was 5390 nM, the cAMP antagonism index came out at 256 and the “cAMP antagonism log IC50” value was -5.3 log M. In the assay with glucagon receptor, the “cAMP antagonism % inhib” value was found to be 100%, the “cAMP antagonism IC50” value stood at 15 nM and the cAMP antagonism index was determined as 1. Further, in the assay with human GIP receptor [2], the “CisBio cAMP agonism % Efficacy” value was 5%, the “CisBio cAMP antagonism % inhib” value was found to be 80%, the “CisBio cAMP antagonism IC50” value worked out at 136 nM and the “CisBio cAMP antagonism pIC50” value was found to be 6.9. In the assay with human GIP receptor [2], the “DiscoveRx cAMP agonism Emax” value was 4, the “DiscoveRx cAMP antagonism IC50” value was found to be 21 nM and the “DiscoveRx cAMP antagonism log IC50” value is -7.7 log M.
